Here are results for 6 molecules from patent US20250241939A1, “NUCLEIC ACID-BASED DELIVERY SYSTEMS AND USES THEREOF” (Kodikaz Therapeutic Solutions, Inc., priority 2022, published 2025).

Data set [1] deals with pancreatic cancer cell lines (MIA Paca-2 [MIA] and PANC1). The data set can be described thus: Cell viability: sensitivity to gemcitabine after culture with patient plasma. In kind it is cell-based, human. The method, then: For the corresponding DNase I-treated samples, plasma was treated with DNase I for 10 minutes. GR: Gemcitabine resistant.
Gemcitabine (GEM)-sensitive pancreatic cancer cell lines (MIA Paca-2 [MIA] and PANC1) were cultured for 24 h with DNase-treated or non-treated plasma from (GEM)-resistant (GR) patients or control plasma.
(§1) Cell viability: Cell viability assays were performed in 96 well, black, clear-bottom microplates. For MM cell line studies, 3×10^4 cells were cultured for 24 hours with media containing 10% human plasma of a bortezomib-resistant or-sensitive patient or a control non-cancer patient. Cells were then cultured for 24 hours with titrating concentrations of bortezomib (doses: 0, 5, 10, 15, 50 nM; Sigma). For PC cell lines viability studies, 1×10^4 cells were incubated for 24 hours with media containing plasma of a gemcitabine-resistant patient or non-cancer patient. Subsequently, titrating concentrations of gemcitabine (doses: 0, 10, 25, 50, 100, 200 μM; Sigma-Aldrich, MO) were added to the culture media and cells were then incubated for 96 hours. CellTiter-Blue Cell Viability Assay was used to evaluate cell viability according to the manufacturer's instructions (Promega). Cell viability was measured by a fluorescent protocol in an microplate reader. Experiments were performed in triplicate of 3 independent studies.

The test system of data set [2] is MM cell lines (MM1s, OPM1, RPMI). The data set can be described thus: Cell viability: sensitivity to bortezomib after culture with plasma and ctDNA. Type of data set: cell-based, human. How it is done: BR: Bortezomib resistant, BS: Bortezomib sensitive. Error bars indicate the standard deviation of triplicate experiments.
as §1

In data set [3] the test system is multiple myeloma cell line. The data set can be described thus: Uptake of fluorescent MM2 fragments, fluorescent microscopy. Type of data set: cell-based. The note with it: Fluorescein 12 dCTP labelled PCR products. How it is done:
FIG. 19 provides fluorescence microcopy images showing uptake of fluorescently labelled synthetic DNA derived from a multiple myeloma ctDNA (MM2 (1-290), MM2 (89-290), MM2 (177-290), and MM2 (1-201), and MM2 (1-113)), or a control sequence.
Fluorescein 12 dCTP from Perkin Elmer was used to label the PCR products, which were purified after the reaction.
In an initial study, fragments were generated as follows:
The fluorescent DNA sequences were incubated with multiple a myeloma cell line and uptake was evaluated by fluorescent microscopy.
The study was repeated with 5′FAM-labelled primers, with similar results.

Data set [4] concerns HFF (fibroblast), DU145 (prostate cancer), and MCF10A (breast). Description: Uptake of MM2 fragments in different cell types. In kind it is cell-based. From the text:
(§2) FIG. 20 provides fluorescence microcopy images evaluating uptake of fluorescently labelled synthetic DNA derived from a multiple myeloma ctDNA (MM2 (1-290), MM2 (89-290), MM2 (177-290), and MM2 (1-201), and MM2 (1-113)) by multiple myeloma/B cell lines (MM1S and RPMI) and cell lines of other cell types (HFF—fibroblast, DU145—prostate cancer, MCF10A breast).
(§3) A follow-up experiment evaluated uptake of the fragments in different cell types, with counterstaining to identify nuclei (DAPI) and cytoplasm (Texas red-phalloidin).

For data set [5], the system named is MM/B cell lines (MM1S and RPMI). Description: Uptake of MM2 fragments in different cell types. Type of data set: cell-based. The note with it: DAPI and Texas red-phalloidin counterstain.
Text: as §2, §3

In data set [6] the test system is MM1s (multiple myeloma) cell genome. Description: ctDNA coculture with MM1s cells, whole genome sequencing: genomic insertion sites, transposons at insertion points and SNVs (multiple myeloma). Type of data set: cell-based, human. The note with it: TABLE 7, multiple myeloma co-culture. How it is done:
The integration of ctDNAs into the host cell genome was evaluated. ctDNA was extracted from patient plasma, cultured for 24 hours with cells of a matching cancer cell type or non-matching cancer cell type, and whole genome sequencing was performed. The cell lines used were MM1s (multiple myeloma, MM) and MIA (pancreatic cancer, PC).
Single nucleotide variants (SNVs) unique to the ctDNA that were found in the host cell genome under matching coculture conditions were identified.
The sequence data was used to reconstruct genomic contigs for each experimental condition by de novo assembly. […] Coculture contigs carrying a ctDNA insertion were identified using NucDiff analysis. BLAST alignment analysis further validated the gain of ctDNA fragments in coculture conditions and identified the transition points of ctDNA insertion (FIGS. 3A-3C). […] The remaining 20% inserted into a chromosomal location distinct from their site of origin.
Experiments were designed to identify the presence of transposons in ctDNA fragments. To map ctDNA genomic junctions more precisely, a PACBIO probe was ligated to multiple myeloma and pancreatic cancer ctDNA samples to label their 5′ and 3′ ends. Whole-genome sequencing of DNA from cells with ctDNA genomic integration was done using the Illumina platform. De novo assembly was performed on the sequencing output. ctDNA contigs containing PACBIO adaptor were then matched to those contigs containing inserted ctDNA sequences identified in the coculture experiments. Transposable element on ctDNA sequences at the insertion points (<100 nucleotides from transition point between cell and ctDNA) were detected and classified using RepeatMaster.
A search was conducted for transposons that preferentially target cells of matching tumor types. The lists of transposons identified at the ctDNA insertion point in matching and mismatched coculture conditions were compared (e.g., MM ctDNA with MM cells or PC cells). Transposons were selected that were uniquely or preferentially inserted in the matching conditions.
In multiple myeloma, AluSp, MER11, MER11C, AluJb, and L2a, among other subfamilies of retrotransposons were identified at the MM ctDNA insertion sites (FIG. 5B and TABLE 7).
Whole-genome sequencing and Whole exon sequencing: ctDNA was extracted from 10 MM and 10 PC patients. DNA from CD138 (+) cells and from cell lines used in in vitro experiments (MM1s and MIA) was extracted using Blood & Cell Culture DNA Mini Kit (Quiagen, MD). DNA from […] paraffin embedded pancreatic tumors was obtained using QIAamp DNA FFPE Tissue Kit Print (Qiagen, MD).
After extraction, ctDNA was ligated to the PACBIO adaptor ([…]) using the ABM DNA Library Prep Kit for Illumina Sequencing (Applied Biological Materials Inc. Canada). PACBio-labeled ctDNA and regular ctDNA were subjected to standard methods for library preparation and sequencing using Illumina and Agilent protocols, respectively. Applied Biological Materials Inc. prepared the libraries and performed whole-exon and -genome sequencing. The average target coverage was 50×.
Identification of transposable elements and its nucleotide variants: To determine the locations of transposable-like regions in contigs, sequences were analyzed and transposable elements (TEs) were identified and classified using RepeatMasker version 4.1.0 and the Dfam database (release 3.1) of repetitive DNA families was used as a reference for identifying repeats in ctDNA contig sequences that were part of qualifying structural events. For each repeat sequence identified by RepeatMasker, the overall frequency of the specific repeat (e.g., for AluSp or L1) and their parent class (e.g., SINE) was computed.
Once the TE elements were identified, hit repeats/TE sequences, unique contigs for all samples, and insertion sequence were aligned with MAFFT software version. […]

For a further data set, the system named is MM1s and U266 cells. Description: Cell capture of several transposons in two MM cell lines at 4 hours, flow cytometry. Type of data set: cell-based, human. The note with it: 4 hours of culture. The method, then:
The variability of cell capture of several transposons was tested in two MM cell lines at 4 hours of culture.

Data set [7] relates to plasma cells (CD138+) and non-plasma cells (CD138−) of bone marrow. The data set can be described thus: Cell targeting in bone marrow samples from patients with and without multiple myeloma, flow cytometry. Type of data set: cell-based, human. How it is done:
FIG. 10 provides illustrative flow cytometry scatterplots displaying the cell capture of AluSp, MER11, and control transposon sequence in plasma cells (CD138+) and non-plasma cells (CD138−) derived from bone marrow of multiple myeloma patients.
Data for plasma cells (CD138+) and non-plasma cells (CD138−) are separately shown.
Cell targeting of the AluSp and MER11C sequences was tested in bone marrow samples derived from patients with and without multiple myeloma.
Background: A flow cytometer gives signals particle by particle.

`Nc1ccn([C@@H]2O[C@H](CO)[C@@H](O)C2(F)F)c(=O)n1` [gemcitabine]: the response to gemcitabine result in data set [1] (cells cultured 24 h with non-DNase-treated GR patient plasma, vs control serum) is given as “became resistant”; in data set [1] (cells cultured with DNase-treated GR plasma), “restored the inherent sensitivity”; in data set [1] (control serum treated with DNase), “increased resistance”.

For the molecule `CC(C)C[C@H](NC(=O)[C@H](Cc1ccccc1)NC(=O)c1cnccn1)B(O)O` [bortezomib], the sensitivity to bortezomib entry in data set [2] (MM1s and OPM1, ctDNA of BR patient added to non-cancer patient plasma) is “decreased the sensitivity”; in data set [2] (RPMI cells, ctDNA of BS patient added to control plasma) it was “increased sensitivity”. Besides, the resistance to bortezomib result in data set [2] (ctDNA of a BR patient added to plasma of a BR patient) is reported as “further increased”.

B1: MM2 (1-201): fluorescently labelled fragment of MM2 (1-290) (nucleic acid, listed as Homo sapiens)
DNA: ACCCGGCCTTGGACACGCCATTTTCAACTCCGTGGTGCGTTTTTTTTTTTTTTTTTTTTTTTTTGTAATGGAGTTTCGCTCTTGTTGCCCAGGATGGAGTGCAAGGGATCTTGGCTCACCACAGCCTCCGCCTCTTGGGTTCAAGTGATTCTTCTGCCTCAGCCTCCCAAGTAGCTGGGATTATAAGCACCCACCACCACG
modifications: fluorescent label
Turning to B1, the uptake result was “observed” in data set [3], “not” in data set [4] and “observed” in data set [5].

B2: MM2 (177-290): fluorescently labelled fragment of MM2 (1-290) (nucleic acid, listed as Homo sapiens)
DNA: GGGATTATAAGCACCCACCACCACGCCCAGCTAATTTTGTATTTTTTAGAAGAGATGGAGTTTCTCCAGTTGGCCAGGATGGTCTGTATATCCTGACCTCATGATCTGCCCACC
modifications: DNA, all phosphodiester, methylation of C not given here; fluorescein label via fluorescein-12-dCTP or 5' FAM primer
As to B2, the uptake entry in data set [3] is “observed”; in data set [4], “not”; in data set [5] it was “observed”.

B3: CY5-MER11C: synthesized MM retrotransposon MER11C, labelled with CY5 (nucleic acid, listed as Homo sapiens)
DNA: TATCGAAAATTCACCCCCGATATTCACGTAGGTTCTTTTCTATTTTCCCTAAGCGTCGGCAGGTTTGAGAAATAAAGGGACAGAGTACAAAAGAGAGAAATTTTAAAGCTGGGCGTCCGGGGGAGACATCACATGTTGGTAGGTTCCATGATGCCCCACAAGCCGTAAAAACCAGCAAGTTTTTATTAGTGATTTTCAAAAGGGGAGGGAGTGTACGAATAGGTGTGGGTCACAGAGATCACGTGCTTCACAAGGTAATAGAATATCACAAGGCAAATGGAGGCAGGGCGAGATCACAGGACCACAGGACCGGGGTGAAATTAAAATTGCTAATGAAGTTTTGGGCACCATTGTCATTGATAACATCTTATCAGGAGACAGGGTTTGAGAGACAACCGGTCTGACCAAAATTTATTAGGTGGGAATTTCCTCGTCCTAATAAGCCTGGGAGTGCTATGGGAGACTGGGGCTTATTTCATCCCGTAGAGGCAACCATAAAAGACAGGCCCAAGCGGCCATTTAGAGCCTCCCAGGACATTCTCTTTCTCAGGGTGTTCCTTGCTGAGAAAAAGAATTCAGATATTTCTCCATTTGCTTTTGAAAGAAGAGAAATATGGCTCTGTTCCCGGCTCACGGCGCAGATTTAAGGTTATCTCCTTTTCCCTGAACAATTGCTGTTATCCTGTTCTTTTTTCAAGGTGCCCAGATTTCATATTGTTCAAACACACATGCTTACAATTTGTGCAGTTAAGCAATATCACAGGGTCCTGAGGGACATACATCCTCCTCAGCTGACAGGATTAAGAGATTAAAGTAAAGACAGGCATAGGAAATCACAAGGGTATTGATTGGGGAAGTGATAAGTGTCCATGAAATCTTCACAATTTATGTTTAGAGATTGCAGTAAAGACAGGCATAAGAAATTATAAAAGTATTAATTTGGGGAACTAATAAATGTCCATGAAATCTTCACAATCCACGTTCTTCTGCCATGGCTTCAGCCGGTCCCTCCGTTCGGGGTCCCTGACTTCCCGCAACA
modifications: CY5 label
Take B3: the blast orientation result in data set [6] (BLAST alignment orientation) is “Plus/Plus”. The blast chr result in data set [6] (chromosome with the longest result for BLAST analysis of the full contig) is reported as “chr14”. The molecule further gave a Distance from insertion in data set [6] (distance between insertion and the transposon (0 if they overlap)) of 0. Further, the “Location relative to insertion” value in data set [6] (location of the transposon relative to the insertion on the contig) is reported as “intersect”. Further, the cell capture result with MM1s and U266 cells is “higher than that of the other transposons, the control sequence, and PC transposons”. For the same molecule, the “signal in plasma cells of MM patients vs non-MM CD138 (−) cells compartment” value in data set [7] (14 hours) is listed as “higher levels of signal”. For the same molecule, the “CY5 positive plasma cells” value in data set [7] (14 hours of culture, vs control sequence or PC specific sequence) is reported as “more CY5 positive plasma cells”.

B4: MM2 (1-113): fluorescently labelled fragment of MM2 (1-290) (nucleic acid, listed as Homo sapiens)
DNA: ACCCGGCCTTGGACACGCCATTTTCAACTCCGTGGTGCGTTTTTTTTTTTTTTTTTTTTTTTTTGTAATGGAGTTTCGCTCTTGTTGCCCAGGATGGAGTGCAAGGGATCTTG
modifications: DNA, all phosphodiester, methylation of C not given here; fluorescein label via fluorescein-12-dCTP or 5' FAM primer
Turning to B4, the uptake entry in data set [3] and in data set [5] was “not” in each case.
